Test results published in article PMC10070233 (Cellular and Molecular Life Sciences: CMLS, 2023).
Blank lines part the entries; values can stand above or below the binder they belong to.

Legend:
Experiment in all cases: BLI; kinetics: FGFRs-Fc (25 μg/mL) immobilised on Protein-A sensors, galectins 0.2-6 μM; heterogeneous ligand (2:1) model
Settings in all cases: both partners purified
[1] = molecular target: T1, extracellular region of FGFR1 fused to the Fc fragment of human IgG1 (human, UniProt P11362 22-376, N-glycosylated (eight N-glycosylation sites))
T1 construct: FGFR1, extracellular region with domains D1, D2 and D3; also called FGFR1-Fc; FGFR1.Fc; source: CHO cells, purified (Protein A Sepharose)
T1 sequence (looked up): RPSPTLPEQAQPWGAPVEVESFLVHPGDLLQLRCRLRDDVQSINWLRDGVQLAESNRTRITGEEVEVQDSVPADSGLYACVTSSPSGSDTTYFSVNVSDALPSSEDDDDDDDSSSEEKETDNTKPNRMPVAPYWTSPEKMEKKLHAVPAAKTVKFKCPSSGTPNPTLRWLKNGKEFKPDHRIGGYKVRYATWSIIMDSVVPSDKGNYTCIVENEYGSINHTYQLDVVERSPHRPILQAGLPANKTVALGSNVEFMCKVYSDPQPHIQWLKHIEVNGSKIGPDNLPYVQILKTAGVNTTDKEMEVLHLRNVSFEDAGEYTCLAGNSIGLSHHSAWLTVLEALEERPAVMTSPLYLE

[2] = molecular target: T2, extracellular region of FGFR4 fused to the Fc fragment of human IgG1 (human, UniProt P22455 22-369, N-glycosylated (five putative N-glycosylation sites))
T2 construct: FGFR4, extracellular region; also called FGFR4-Fc; source: CHO cells, purified (Protein A Sepharose)
T2 sequence (looked up): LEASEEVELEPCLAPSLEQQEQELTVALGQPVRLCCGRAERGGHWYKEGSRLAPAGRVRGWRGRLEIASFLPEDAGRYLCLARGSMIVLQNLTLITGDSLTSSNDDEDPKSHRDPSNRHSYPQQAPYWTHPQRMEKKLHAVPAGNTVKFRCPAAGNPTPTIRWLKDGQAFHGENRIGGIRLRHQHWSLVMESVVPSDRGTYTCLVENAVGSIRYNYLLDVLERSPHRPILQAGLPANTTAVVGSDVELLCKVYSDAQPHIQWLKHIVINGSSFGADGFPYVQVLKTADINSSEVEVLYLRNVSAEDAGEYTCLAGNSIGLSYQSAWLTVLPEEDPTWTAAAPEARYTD

[3] = molecular target: T3, extracellular region of FGFR2 fused to the Fc fragment of human IgG1 (human, UniProt P21802 22-377, N-glycosylated (eight putative N-glycosylation sites))
T3 construct: FGFR2, extracellular region; also called FGFR2-Fc; source: CHO cells, purified (Protein A Sepharose)
T3 sequence (P21802 22-377): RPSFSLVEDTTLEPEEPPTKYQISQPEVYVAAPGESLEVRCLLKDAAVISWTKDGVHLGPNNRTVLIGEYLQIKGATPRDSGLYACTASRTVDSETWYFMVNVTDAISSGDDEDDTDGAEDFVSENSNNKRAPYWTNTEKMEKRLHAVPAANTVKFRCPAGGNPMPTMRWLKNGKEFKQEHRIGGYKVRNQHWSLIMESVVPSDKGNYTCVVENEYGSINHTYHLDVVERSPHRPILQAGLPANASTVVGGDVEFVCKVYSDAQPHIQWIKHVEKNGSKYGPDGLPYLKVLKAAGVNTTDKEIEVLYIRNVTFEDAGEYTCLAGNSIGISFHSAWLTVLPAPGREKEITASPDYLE

[4] = molecular target: T4, extracellular region of FGFR3 fused to the Fc fragment of human IgG1 (human, UniProt P22607 23-375, N-glycosylated (six putative N-glycosylation sites))
T4 construct: FGFR3, extracellular region; also called FGFR3-Fc; source: CHO cells, purified (Protein A Sepharose)
T4 sequence (looked up): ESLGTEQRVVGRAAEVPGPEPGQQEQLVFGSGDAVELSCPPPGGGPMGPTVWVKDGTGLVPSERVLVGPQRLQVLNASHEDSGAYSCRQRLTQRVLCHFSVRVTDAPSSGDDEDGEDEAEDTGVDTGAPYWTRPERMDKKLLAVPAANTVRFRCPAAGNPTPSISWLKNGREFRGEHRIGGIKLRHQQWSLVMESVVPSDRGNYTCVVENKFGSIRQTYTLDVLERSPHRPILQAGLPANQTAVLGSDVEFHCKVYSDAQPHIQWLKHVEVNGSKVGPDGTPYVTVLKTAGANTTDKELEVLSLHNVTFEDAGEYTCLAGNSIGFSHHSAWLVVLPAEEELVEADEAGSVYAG

KD1 [1]: 0.95 µM | KD2 [1]: 194 nM | Koff1 [1]: 0.0225 s⁻¹ | Koff2 [1]: 0.000766 s⁻¹ | Kon1 [1]: 25200 M⁻¹ s⁻¹ | Kon2 [1]: 8820 M⁻¹ s⁻¹ | KD1 [2]: 24.3 nM | KD2 [2]: 249 nM | Koff1 [2]: 0.000929 s⁻¹ | Koff2 [2]: 0.0161 s⁻¹ | Kon1 [2]: 38700 M⁻¹ s⁻¹ | Kon2 [2]: 65100 M⁻¹ s⁻¹ | KD1 [3]: 3.8 µM | KD2 [3]: 141 nM | Koff1 [3]: 0.0312 s⁻¹ | Koff2 [3]: 0.00493 s⁻¹ | Kon1 [3]: 13200 M⁻¹ s⁻¹ | Kon2 [3]: 35100 M⁻¹ s⁻¹ | KD1 [4]: 174 nM | KD2 [4]: 63 nM | Koff1 [4]: 0.0289 s⁻¹ | Koff2 [4]: 0.000855 s⁻¹ | Kon1 [4]: 167000 M⁻¹ s⁻¹ | Kon2 [4]: 14500 M⁻¹ s⁻¹
B1: galectin-8 (natural protein, human, UniProt O00214 1-317, looked up)
chain: MMLSLNNLQNIIYNPVIPFVGTIPDQLDPGTLIVIRGHVPSDADRFQVDLQNGSSMKPRADVAFHFNPRFKRAGCIVCNTLINEKWGREEITYDTPFKREKSFEIVIMVLKDKFQVAVNGKHTLLYGHRIGPEKIDTLGIYGKVNIHSIGFSFSSDLQSTQASSLELTEISRENVPKSGTPQLRLPFAARLNTPMGPGRTVVVKGEVNANAKSFNVDLLAGKSKDIALHLNPRLNIKAFVRNSFLQESWGEEERNITSFPFSPGMYFEMIIYCDVREFKVAVNGVHSLEYKHRFKELSSIDTLEINGDIHLLEVRSW
notes: galectin-8, human; the C-CRD construct ends at Trp317, which fits the form of 317 residues; also called gal-8; full-length galectin-8; source: E. coli BL21 CodonPlus(DE3)-RIL, purified (Ni-NTA); not shown: His tag, N-terminal, kept

KD1 [1]: 2.6 µM | KD2 [1]: 17 nM | Koff1 [1]: 0.164 s⁻¹ | Koff2 [1]: 0.000194 s⁻¹ | Kon1 [1]: 165000 M⁻¹ s⁻¹ | Kon2 [1]: 429000 M⁻¹ s⁻¹
B2: N-terminal carbohydrate recognition domain of galectin-8 fused to the AviTag (domain or fragment, human, UniProt O00214 1-152, looked up)
chain: MMLSLNNLQNIIYNPVIPFVGTIPDQLDPGTLIVIRGHVPSDADRFQVDLQNGSSMKPRADVAFHFNPRFKRAGCIVCNTLINEKWGREEITYDTPFKREKSFEIVIMVLKDKFQVAVNGKHTLLYGHRIGPEKIDTLGIYGKVNIHSIGFS
notes: galectin-8, human, N-CRD, residues Met1-Ser152; also called gal-8N-CRD; gal-8_(N-CRD); source: E. coli BL21(DE3) pLysS, purified (Ni-NTA); not shown: AviTag, C-terminal, kept
